Source: paper PMC3729259 (The Prostate, 2010)

Molecular target: Gal4-PAX6 fusion protein (human, UniProt P26367 1-422)
Assay: two-hybrid

Sequence of Gal4-PAX6 fusion protein (P26367 whole entry, the tested form may be a part): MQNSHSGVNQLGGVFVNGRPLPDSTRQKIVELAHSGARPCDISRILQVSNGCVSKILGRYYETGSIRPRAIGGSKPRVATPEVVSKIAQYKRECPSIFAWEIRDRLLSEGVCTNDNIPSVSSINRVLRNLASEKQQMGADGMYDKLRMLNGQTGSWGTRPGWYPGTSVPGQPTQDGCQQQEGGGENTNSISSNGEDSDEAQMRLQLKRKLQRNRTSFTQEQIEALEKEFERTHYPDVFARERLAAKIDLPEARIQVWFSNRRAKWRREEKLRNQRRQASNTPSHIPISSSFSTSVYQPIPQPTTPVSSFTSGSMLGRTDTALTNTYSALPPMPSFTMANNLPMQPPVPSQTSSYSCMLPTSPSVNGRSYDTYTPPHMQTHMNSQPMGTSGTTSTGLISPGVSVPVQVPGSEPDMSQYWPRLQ

fold luciferase activity (against cells with pGal4 and pVP16): 4 fold
B1: VP16-AR fusion protein (receptor, UniProt P10275 1-920, looked up)
chain: MEVQLGLGRVYPRPPSKTYRGAFQNLFQSVREVIQNPGPRHPEAASAAPPGASLLLLQQQQQQQQQQQQQQQQQQQQQQQETSPRQQQQQQGEDGSPQAHRRGPTGYLVLDEEQQPSQPQSALECHPERGCVPEPGAAVAASKGLPQQLPAPPDEDDSAAPSTLSLLGPTFPGLSSCSADLKDILSEASTMQLLQQQQQEAVSEGSSSGRAREASGAPTSSKDNYLGGTSTISDNAKELCKAVSVSMGLGVEALEHLSPGEQLRGDCMYAPLLGVPPAVRPTPCAPLAECKGSLLDDSAGKSTEDTAEYSPFKGGYTKGLEGESLGCSGSAAAGSSGTLELPSTLSLYKSGALDEAAAYQSRDYYNFPLALAGPPPPPPPPHPHARIKLENPLDYGSAWAAAAAQCRYGDLASLHGAGAAGPGSGSPSAAASSSWHTLFTAEEGQLYGPCGGGGGGGGGGGGGGGGGGGGGGGEAGAVAPYGYTRPPQGLAGQESDFTAPDVWYPGGMVSRVPYPSPTCVKSEMGPWMDSYSGPYGDMRLETARDHVLPIDYYFPPQKTCLICGDEASGCHYGALTCGSCKVFFKRAAEGKQKYLCASRNDCTIDKFRRKNCPSCRLRKCYEAGMTLGARKLKKLGNLKLQEEGEASSTTSPTEETTQKLTVSHIEGYECQPIFLNVLEAIEPGVVCAGHDNNQPDSFAALLSSLNELGERQLVHVVKWAKALPGFRNLHVDDQMAVIQYSWMGLMVFAMGWRSFTNVNSRMLYFAPDLVFNEYRMHKSRMYSQCVRMRHLSQEFGWLQITPQEFLCMKALLLFSIIPVDGLKNQKFFDELRMNYIKELDRIIACKRKNPTSCSRRFYQLTKLLDSVQPIARELHQFTFDLLIKSHMVSVDFPEMMAEIISVQVPKILSGKVKPIYFHTQ
